A word on the IC50: it is the concentration that inhibits the measured activity by half. Lower therefore signals greater potency.

The target in the experiment is T1, CI-M6P/IGF2R domains 11-13 (Homo sapiens, UniProt P11717).
T1 chain: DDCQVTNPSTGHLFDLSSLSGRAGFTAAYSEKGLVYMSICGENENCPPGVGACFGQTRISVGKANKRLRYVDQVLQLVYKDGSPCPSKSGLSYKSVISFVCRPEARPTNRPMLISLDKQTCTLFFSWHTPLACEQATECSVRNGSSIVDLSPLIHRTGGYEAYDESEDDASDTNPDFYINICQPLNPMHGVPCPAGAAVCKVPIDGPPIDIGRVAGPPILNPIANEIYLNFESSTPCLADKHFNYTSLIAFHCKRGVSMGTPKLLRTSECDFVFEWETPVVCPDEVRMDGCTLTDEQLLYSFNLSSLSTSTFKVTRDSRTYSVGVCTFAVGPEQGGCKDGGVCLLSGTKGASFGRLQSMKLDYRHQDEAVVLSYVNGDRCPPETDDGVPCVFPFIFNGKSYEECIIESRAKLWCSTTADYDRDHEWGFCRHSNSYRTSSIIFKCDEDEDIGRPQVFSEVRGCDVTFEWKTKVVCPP
Briefly: competitive ELISA (biotinylated IGF2). For orientation: ELISA stands for enzyme-linked immunosorbent assay.

B1: IGF2 peptide (des1-6) 7-67 (protein)
chain: KSMLVLLTFLAFASCCIAAYRPSETLCGGELVDTLQFVCGDRGFYFSRPASRVSRRSRGIV
B1 returned an IC50 of roughly 5 nM.

The record behind these values is publication PMC12603107 (2025).
